Results published in publication PMC2997466, “The unstructured C-terminal extension of UvrD interacts with UvrB, but is dispensable for nucleotide excision repair” (DNA Repair, 2009).
Each block holds one molecule with its values, some of them ahead of it.

Experiments:
[1] = tested on: UvrD (helicase II) (Escherichia coli MG1655); experiment: DNA-dependent ATPase, poly(dT) titration (KDNA, half-maximal activity); details: NER complex: 40 mM HEPES pH 8.0, 100 mM KCl, 8 mM MgCl2, 5 mM DTT, 100 ug/ml BSA, 11% glycerol, 2 mM ATP with regeneration system, 37 C; ATPase assay …
[2] = tested on: UvrD1-647 (Escherichia coli MG1655); experiment: as above; details: NER complex: 40 mM HEPES pH 8.0, 100 mM KCl, 8 mM MgCl2, 5 mM DTT, 100 ug/ml BSA, 11% glycerol, 2 mM ATP with regeneration system, 37 C; ATPase assay …
[3] = target: T1, UvrD (helicase II), native untagged (E. coli, UniProt P03018 1-720); experiment: SPR; BIAcore 2000; UvrB or UvrB_(1–414) immobilised on CM5 chip by amine coupling (~8000 RU); UvrD or UvrD_(1–647) injected at 0.05-4.0 μM, 20 μl/min, 25 °C; 10 mM HEPES pH 7.4, 150 mM NaCl, 3 mM EDTA, 0.005% Tween20; details: both partners purified
T1 construct: UvrD (helicase II), E. coli MG1655, whole coding region from start to stop codon (720 residues); also called full-length UvrD; wild-type UvrD; source: E. coli BL21(DE3), pETDUET-UvrD, purified (heparin, MonoQ)
T1 sequence (looked up): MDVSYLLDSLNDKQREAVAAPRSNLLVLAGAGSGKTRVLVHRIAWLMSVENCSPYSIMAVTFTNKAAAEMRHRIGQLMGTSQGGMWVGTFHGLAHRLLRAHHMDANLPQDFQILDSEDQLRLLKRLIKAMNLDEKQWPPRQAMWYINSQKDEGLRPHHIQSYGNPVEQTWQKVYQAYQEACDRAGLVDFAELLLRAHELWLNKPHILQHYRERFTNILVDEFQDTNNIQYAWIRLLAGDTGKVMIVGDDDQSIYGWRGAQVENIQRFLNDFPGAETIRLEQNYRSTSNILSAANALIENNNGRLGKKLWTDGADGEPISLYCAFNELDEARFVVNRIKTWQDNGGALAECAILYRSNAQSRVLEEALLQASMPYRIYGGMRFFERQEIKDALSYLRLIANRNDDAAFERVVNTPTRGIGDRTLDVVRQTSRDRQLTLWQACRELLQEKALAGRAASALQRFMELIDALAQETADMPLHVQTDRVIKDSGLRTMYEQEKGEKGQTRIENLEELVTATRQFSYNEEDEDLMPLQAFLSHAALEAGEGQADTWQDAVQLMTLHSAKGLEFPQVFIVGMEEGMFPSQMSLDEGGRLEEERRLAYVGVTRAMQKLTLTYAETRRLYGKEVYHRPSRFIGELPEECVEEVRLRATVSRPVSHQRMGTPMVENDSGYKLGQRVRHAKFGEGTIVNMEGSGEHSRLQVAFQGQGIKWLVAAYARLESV

[4] = target: T2, ^bioUvrD, full-length UvrD biotinylated at the N-terminus (E. coli, UniProt P03018 1-720, biotin on the lysine of the N-terminal tag … (biotinylated in vivo by BirA)); experiment: SPR; BIAcore 2000; ^bioUvrD or ^bioUvrD_(1–647) immobilised on streptavidin (SA) chip (~7000 RU); UvrB or UvrB_(1–414) injected at 0.05-4.0 μM, 20 μl/min, 25 °C; 10 mM HEPES pH 7.4, 150 mM NaCl, 3 mM EDTA, 0.005% Tween20; details: both partners purified
T2 construct: UvrD (helicase II), E. coli MG1655, whole coding region (720 residues); The tag was inserted at the NcoI site that overlaps the start codon of uvrD; also called biotinylated UvrD; source: E. coli BL21(DE3) with pBirACm and pET28a-^bioUvrD, purified (ammonium sulphate, Softlink Avidin, HiTrap heparin)
T2 sequence (looked up): T1 sequence (looked up)

[5] = target: T3, λ cI-UvrB 35–252 (1a2) fusion protein (E. coli, UniProt P0A8F8 35-252); experiment: two-hybrid; bacterial 2-hybrid (Dove and Hochschild) in E. coli KS1: UvrD fragments fused to RNA polymerase α 1–248, UvrB fragments fused to λ cI 1–236; chromosomal lacZ reporter, β-galactosidase in Miller Units; LB with 1 mM IPTG, 30 °C, mid-log phase; details: partners not purified
T3 construct: UvrB, E. coli, residues 35-252 (domains 1a and 2); also called UvrB fragment containing domains 1a and 2; source: bacterial two-hybrid fusion, pRA03 derivative, in E. coli KS1; not shown: λ cI residues 1–236, N-terminal, kept
T3 sequence (looked up): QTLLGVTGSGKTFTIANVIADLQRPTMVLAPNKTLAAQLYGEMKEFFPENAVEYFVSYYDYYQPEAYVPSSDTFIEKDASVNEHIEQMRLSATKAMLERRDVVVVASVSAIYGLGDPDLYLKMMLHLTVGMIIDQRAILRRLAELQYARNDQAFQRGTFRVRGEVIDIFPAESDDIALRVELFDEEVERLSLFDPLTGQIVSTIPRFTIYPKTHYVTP

[6] = target: T4, λ cI-UvrB 251–547 (1b3) fusion protein (E. coli, UniProt P0A8F8 251-547); experiment: as above; details: partners not purified
T4 construct: UvrB, E. coli, residues 251-547 (domains 1b and 3); also called UvrB domains 1b and 3; source: bacterial two-hybrid fusion, pRA03 derivative, in E. coli KS1; not shown: λ cI residues 1–236, N-terminal, kept
T4 sequence (looked up): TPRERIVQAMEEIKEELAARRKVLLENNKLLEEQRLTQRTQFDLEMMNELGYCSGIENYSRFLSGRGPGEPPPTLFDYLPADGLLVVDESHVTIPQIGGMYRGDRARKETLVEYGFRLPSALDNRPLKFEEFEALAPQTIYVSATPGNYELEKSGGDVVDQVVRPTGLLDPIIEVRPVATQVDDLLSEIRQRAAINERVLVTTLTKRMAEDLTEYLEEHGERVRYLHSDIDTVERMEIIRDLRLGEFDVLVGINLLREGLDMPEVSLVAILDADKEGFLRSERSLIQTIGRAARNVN

[7] = target: T5, λ cI-UvrB 527–673 (4) fusion protein (E. coli, UniProt P0A8F8 527-673); experiment: as above; details: partners not purified
T5 construct: UvrB, E. coli, residues 527-673 (domain 4); also called UvrB domain 4; source: bacterial two-hybrid fusion, pRA03 derivative, in E. coli KS1; not shown: λ cI residues 1–236, N-terminal, kept
T5 sequence (looked up): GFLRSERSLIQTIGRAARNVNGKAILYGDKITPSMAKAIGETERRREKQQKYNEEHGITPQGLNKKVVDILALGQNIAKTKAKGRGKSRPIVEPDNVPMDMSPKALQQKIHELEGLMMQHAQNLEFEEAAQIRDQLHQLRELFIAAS

Molecule: poly(dT)
K half (uM nucleotides) [1]: 0.54
K half (uM nucleotides) [2]: 2.5

B1: UvrB, N-terminally hexa-His-tagged (natural protein, E. coli, UniProt P0A8F8 1-673, looked up)
chain: MSKPFKLNSAFKPSGDQPEAIRRLEEGLEDGLAHQTLLGVTGSGKTFTIANVIADLQRPTMVLAPNKTLAAQLYGEMKEFFPENAVEYFVSYYDYYQPEAYVPSSDTFIEKDASVNEHIEQMRLSATKAMLERRDVVVVASVSAIYGLGDPDLYLKMMLHLTVGMIIDQRAILRRLAELQYARNDQAFQRGTFRVRGEVIDIFPAESDDIALRVELFDEEVERLSLFDPLTGQIVSTIPRFTIYPKTHYVTPRERIVQAMEEIKEELAARRKVLLENNKLLEEQRLTQRTQFDLEMMNELGYCSGIENYSRFLSGRGPGEPPPTLFDYLPADGLLVVDESHVTIPQIGGMYRGDRARKETLVEYGFRLPSALDNRPLKFEEFEALAPQTIYVSATPGNYELEKSGGDVVDQVVRPTGLLDPIIEVRPVATQVDDLLSEIRQRAAINERVLVTTLTKRMAEDLTEYLEEHGERVRYLHSDIDTVERMEIIRDLRLGEFDVLVGINLLREGLDMPEVSLVAILDADKEGFLRSERSLIQTIGRAARNVNGKAILYGDKITPSMAKAIGETERRREKQQKYNEEHGITPQGLNKKVVDILALGQNIAKTKAKGRGKSRPIVEPDNVPMDMSPKALQQKIHELEGLMMQHAQNLEFEEAAQIRDQLHQLRELFIAAS
notes: UvrB, E. coli MG1655, whole coding region from start to stop codon (673 residues); also called full-length UvrB; source: E. coli XL1-Blue, pQE30UvrB, purified (Ni HiTrap chelating column)
binding result [3]: binds
binding result [4]: binds

B2: UvrB_(1–414), N-terminally His-tagged (domain or fragment, E. coli, UniProt P0A8F8 1-414, looked up)
chain: MSKPFKLNSAFKPSGDQPEAIRRLEEGLEDGLAHQTLLGVTGSGKTFTIANVIADLQRPTMVLAPNKTLAAQLYGEMKEFFPENAVEYFVSYYDYYQPEAYVPSSDTFIEKDASVNEHIEQMRLSATKAMLERRDVVVVASVSAIYGLGDPDLYLKMMLHLTVGMIIDQRAILRRLAELQYARNDQAFQRGTFRVRGEVIDIFPAESDDIALRVELFDEEVERLSLFDPLTGQIVSTIPRFTIYPKTHYVTPRERIVQAMEEIKEELAARRKVLLENNKLLEEQRLTQRTQFDLEMMNELGYCSGIENYSRFLSGRGPGEPPPTLFDYLPADGLLVVDESHVTIPQIGGMYRGDRARKETLVEYGFRLPSALDNRPLKFEEFEALAPQTIYVSATPGNYELEKSGGDVVDQVVR
notes: also called truncated derivative of UvrB comprising domains 1a, 2 and 1b
binding result [3]: binds
binding result [4]: binds

Now from value to molecule:

β-galactosidase activity [5]: 111 Miller Units
β-galactosidase activity [6]: 336 Miller Units
β-galactosidase activity [7]: 86 Miller Units
B3: α-UvrD 1–280 (1a1b1a) fusion protein (domain or fragment, E. coli, UniProt P03018 1-280, looked up)
chain: MDVSYLLDSLNDKQREAVAAPRSNLLVLAGAGSGKTRVLVHRIAWLMSVENCSPYSIMAVTFTNKAAAEMRHRIGQLMGTSQGGMWVGTFHGLAHRLLRAHHMDANLPQDFQILDSEDQLRLLKRLIKAMNLDEKQWPPRQAMWYINSQKDEGLRPHHIQSYGNPVEQTWQKVYQAYQEACDRAGLVDFAELLLRAHELWLNKPHILQHYRERFTNILVDEFQDTNNIQYAWIRLLAGDTGKVMIVGDDDQSIYGWRGAQVENIQRFLNDFPGAETIRLE
notes: UvrD (helicase II), E. coli, residues 1-280 (domains 1a and 1b); also called N-terminal fragment of UvrD; UvrD domains 1a and 1b; source: bacterial two-hybrid fusion, pRA02 derivative, in E. coli KS1; not shown: RNA polymerase α subunit residues 1–248, N-terminal, kept

β-galactosidase activity [5]: 140 Miller Units
B4: α-UvrD 645–720 (C-extension) fusion protein (domain or fragment, E. coli, UniProt P03018 645-720, looked up)
chain: RLRATVSRPVSHQRMGTPMVENDSGYKLGQRVRHAKFGEGTIVNMEGSGEHSRLQVAFQGQGIKWLVAAYARLESV
notes: UvrD (helicase II), E. coli, residues 645-720 (unstructured C-terminal extension); also called C-terminal extension of UvrD (residues 645–720); source: bacterial two-hybrid fusion, pRA02 derivative, in E. coli KS1; not shown: RNA polymerase α subunit residues 1–248, N-terminal, kept
